Paper PMC12062237, “Phosphate-binding pocket on cyclin B governs CDK substrate phosphorylation and mitotic timing” (Nature Communications, 2025)
Changes are numbered by the printed parent chain. Names may count otherwise.

B1: Cks1, wild-type (natural protein, S. cerevisiae, UniProt P20486 1-150, looked up)
chain: MYHHYHAFQGRKLTDQERARVLEFQDSIHYSPRYSDDNYEYRHVMLPKAMLKVIPSDYFNSEVGTLRILTEDEWRGLGITQSLGWEHYECHAPEPHILLFKRPLNYEAELRAATAAAQQQQQQQQQQQQQQQQHQTQSISNDMQVPPQIS
notes: Cks1 of S. cerevisiae; also called wild-type Cks1; source: E. coli BL21(DE3) Star, purified (boiling, ammonium sulfate, S200 gel filtration)
B2: Cks1 mutant (R33E, S82E, R102A) (natural protein, S. cerevisiae, UniProt P20486 1-150, looked up)
chain: B1 chain with R33E, S82E, R102A
notes: also called mutant Cks1; source: E. coli BL21(DE3) Star, purified (boiling, ammonium sulfate, S200 gel filtration)
B3: Cdk1 (Cdc28), T169-phosphorylated (enzyme)
chain: not shown
modifications: phosphothreonine at 169 (by Cak1)
notes: Cdk1 (Cdc28) of S. cerevisiae, made as a GST-TEV-Cdk1 fusion; no TEV cleavage is described; the pooled fractions are called GST-Cdk1; also called GST-Cdk1; phosphorylated Cdk1; source: Sf9, baculovirus, purified (Glutathione Sepharose, S200 gel filtration); phosphorylated with purified Cak1

Tests used:
Details in all cases: both partners purified
[1] = molecular target: T1, Clb2-Cdk1 complex, wild-type Clb2 (S. cerevisiae, UniProt P24869 187-491; P00546 1-298, phosphothreonine at 169 (by Cak1)); assay: reconstitution of an active kinase complex by mixing; Clb2-Cdk1 combined with equimolar Cks1; no separate test of association
T1 construct: Clb2 of S. cerevisiae, aa 187-491; Cdk1 (Cdc28) of S. cerevisiae, made as a GST-TEV-Cdk1 fusion; formed before Cks1 was added; also called wild-type Clb2-Cdk1; active Clb2-Cdk1; source: assembled from purified Clb2 (E. coli) and purified Cak1-phosphorylated Cdk1 (Sf9), desalted

[2] = molecular target: T2, Clb2-Cdk1 complex, Clb2-pp mutant (S. cerevisiae, UniProt P24869 187-491; P00546 1-298, R366A | R379A | K383A, phosphothreonine at 169 (by Cak1)); assay: as above
T2 construct: Clb2 of S. cerevisiae, aa 187-491, phosphate-pocket mutant; Cdk1 (Cdc28) of S. cerevisiae, made as a GST-TEV-Cdk1 fusion; formed before Cks1 was added; also called clb2-pp Clb2-Cdk1; PP mutant Clb2-Cdk1; source: assembled from purified Clb2-pp (E. coli) and purified Cak1-phosphorylated Cdk1 (Sf9), desalted

[3] = molecular target: T3, Clb2 (aa 187-491), wild-type (S. cerevisiae, UniProt P24869 187-491); assay: reconstitution of an active kinase complex by mixing; 10.5 uM Cak1-phosphorylated Cdk1 and 10.5 uM Clb2, on ice 60 min, then desalted; the complex is known by its kinase activity only
T3 construct: Clb2, major mitotic B-type cyclin of S. cerevisiae, aa 187-491; also called wild-type Clb2; source: E. coli BL21(DE3) Star, pET28, purified (Ni-NTA, S200 gel filtration)
T3 sequence (looked up): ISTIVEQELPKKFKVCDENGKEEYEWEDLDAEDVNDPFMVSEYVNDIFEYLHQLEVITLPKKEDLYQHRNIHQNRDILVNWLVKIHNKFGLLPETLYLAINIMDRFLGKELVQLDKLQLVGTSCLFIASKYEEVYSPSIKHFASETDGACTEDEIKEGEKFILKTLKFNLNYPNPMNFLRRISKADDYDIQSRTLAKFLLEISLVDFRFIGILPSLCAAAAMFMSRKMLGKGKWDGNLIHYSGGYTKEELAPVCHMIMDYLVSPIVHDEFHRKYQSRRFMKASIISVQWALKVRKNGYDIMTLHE

[4] = molecular target: T4, Clb2-pp mutant (R366A, R379A, K383A), aa 187-491 (S. cerevisiae, UniProt P24869 187-491, R366A | R379A | K383A); assay: as above
T4 construct: also called PP mutant Clb2; source: E. coli BL21(DE3) Star, pET28, purified (Ni-NTA, S200 gel filtration)
T4 sequence (looked up): T3 sequence (looked up) with R180A, R193A, K197A

T2 sequence (P00546 whole entry, stated change not applied, the tested form may be a part, one chain of several): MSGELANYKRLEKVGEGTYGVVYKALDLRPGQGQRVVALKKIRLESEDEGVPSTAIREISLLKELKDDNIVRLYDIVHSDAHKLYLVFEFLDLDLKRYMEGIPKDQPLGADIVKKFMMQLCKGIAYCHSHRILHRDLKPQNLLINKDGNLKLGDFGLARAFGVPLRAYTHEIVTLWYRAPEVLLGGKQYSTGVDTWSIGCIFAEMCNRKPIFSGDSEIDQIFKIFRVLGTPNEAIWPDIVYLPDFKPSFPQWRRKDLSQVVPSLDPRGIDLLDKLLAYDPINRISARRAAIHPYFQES
T1 sequence (P00546 whole entry, the tested form may be a part, one chain of several): as the sequence (P00546 whole entry, stated change not applied, the tested form may be a part, one chain of several) above

| Binder | binding result [1] | binding result [2] | binding result [3] | binding result [4] |
| --- | --- | --- | --- | --- |
| B1 | binds | binds | – | – |
| B2 | binds | binds | – | – |
| B3 | – | – | binds | binds |
